Experimental data as given in article PMC2889767.

T1: Rfx3 (in vitro translated) (UniProt P48381 1-749)
T1 sequence: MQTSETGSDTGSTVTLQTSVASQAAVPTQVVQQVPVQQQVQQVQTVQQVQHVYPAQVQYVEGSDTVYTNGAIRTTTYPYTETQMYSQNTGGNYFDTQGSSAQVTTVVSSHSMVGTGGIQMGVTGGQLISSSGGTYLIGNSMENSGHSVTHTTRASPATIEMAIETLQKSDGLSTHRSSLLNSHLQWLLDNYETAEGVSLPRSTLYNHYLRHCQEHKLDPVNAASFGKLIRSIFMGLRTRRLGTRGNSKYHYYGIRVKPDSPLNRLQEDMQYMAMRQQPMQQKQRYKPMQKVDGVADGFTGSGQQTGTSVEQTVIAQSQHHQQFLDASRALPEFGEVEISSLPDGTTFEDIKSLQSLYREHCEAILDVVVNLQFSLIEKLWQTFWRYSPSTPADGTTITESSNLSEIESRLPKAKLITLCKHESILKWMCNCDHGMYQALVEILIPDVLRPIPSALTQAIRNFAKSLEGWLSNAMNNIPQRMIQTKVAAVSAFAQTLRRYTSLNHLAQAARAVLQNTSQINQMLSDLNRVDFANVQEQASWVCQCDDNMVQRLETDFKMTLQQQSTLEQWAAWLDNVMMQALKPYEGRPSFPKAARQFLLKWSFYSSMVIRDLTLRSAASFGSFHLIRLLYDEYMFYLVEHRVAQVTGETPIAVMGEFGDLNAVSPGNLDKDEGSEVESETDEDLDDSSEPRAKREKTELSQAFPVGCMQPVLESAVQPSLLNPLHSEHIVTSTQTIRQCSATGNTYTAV

B1: Pal-1 wild type (dsDNA)
DNA 1: GGGAGTGGTCACCATGGTGACAGGAG
DNA 2: GGCTCCTGTCACCATGGTGACCACTC
B2: Pal-2 wild type (dsDNA)
DNA 1: GGCAATGGTCACCATAGAAACCACAG
DNA 2: GGCTGTGGTTTCTATGGTGACCATTG

Biological target: T1, Rfx3 (in vitro translated)
Assay: EMSA

Binder | binding result
B1 | binds
B2 | binds
